# Source: a protein production outcome set (Wang et al. 2014)
# Test: label from the status in PepcDB records
row,Sequence,protein production
1,MTAEETVNVKEVEIIKLILDFLNSKKLHISMLALEKESGVINGLFSDDMLFLRQLILDGQWDEVLQFIQPLECMEKFDKKRFRYIILKQKFLEALCVNNAMSAEDEPQHLEFTMQEAVQCLHALEEYCPSKDDYSKLCLLLTLPRLTNHAEFKDWNPSTARVHCFEEVCVMVAEFIPADRKLSEAGFKASNNRLFQLVMKGLLYECCVEFCQSKATGEEITESEVLLGIDLLCGNGCDDLDLSLLSWLQNLPSSVFSCAFEQKMLNIHVDKLLKPTKAAYADLLTPLISKLSPYPSSPMRRPQSADAYMTRSLNPALDGLTCGLTSHDKRISDLGNKTSPMSHSFANFHYPGVQNLSRSLLLENTECHSIYEESPERSDTPVETQQPVSIEPMCQGSGLEKEPANGAQNPVPAKQQEKNELRDSTEQFQEYYRQRLRYQQHLEQKEQQRQIYQQMLLEGGVNQEDGPDQQQNLTEQFLNRSIQKLGELNIGMDSLGNEVPVLNQQCLGSKNSGSNNSSVTSFSSPPQDSSQRLTHDTSNIHTSTPRNPGSTNHIPFLEESPCGSQNSSEHSVVKPSPGDSSGSLSRSKGEEDDKSKKQFVCINTLEDTQAVRAVAFHPSGSLYAVGSNSKTLRVCAYPEKLDTSAHDGPKQPVVRFKRNKHHKGSIYCVAWSPCGQLLATGSNDKYVKVLPFNAETCNATGPDLEFSMHDGTIRDLAFMEGPESGGAILISAGAGDCNIYTTDCQRGQGLHALSGHTGHILALYTWSGWMIASGSQDKTVRFWDLRVPSCVRVVGTTFHGTGSAVASVAVDPSGRLLATGQEDSSCMLYDIRGGRMVQSYHPHSSDVRSVRFSPGAHYLLTGSYDMKIKVTDLQGDLTKQLPLMVVGEHKDKVIQCRWHTQDLSFLSSSADRTVTLWTYSG,failed
2,MTAFILVSGMFTGTHIWQDTAARLTARGAEVHTVALTGLDAPRAAAAPGVDLETHIADVLAVIDSVGAAGDRRIVLVGHDYGIHPAVGAADRRAERVDRIVHLDSGLPRDGVPALAAVPDQSLRERLAGAAGADGVLPPPAHEEWPRWGSTAGVPDAALDRLTALAAPQPLGTLLQPLRLTGAVDPVPTTGVLCTGNGTSIELVQMLVRLGDPALRPLTDPRVSFFELPTGHWPMLSLPAELTDVLLRAAAG,failed
3,MTAGHGIAALPGTMRVFERGWLSSNNILFFDDDAHGGCALVDSGYLTHAPQTVALARHALQGRPLRRLLNTHLHADHCGGNAALQAAYGCRIRVPAAQIGDVRRWDTDALSYRPTGQQCERFTLPEGDTAEAGLADGMTARLGGLDWQVISAPGHDPHAVILYSPDTRVLLSADALWERGFGVIFPELEGESGFAEQEAILACIARLGARVVVPGHGRPFTEVDAAIDAARGRLAYLRADPERNALHALRVLVKFKLLEQQAMTREALAAWFAQASLIPRLQARFFAATPLPALLEATVAALVKAGAAAVEATRIVNRG,failed
4,MTALAVTLKNWFFTRNSMILNANILLFIILFNTLPFEPQVVTGISILVFVAILWLTEAIHVSITALLIPMLAVFLGVFNTQAALNNFSNSIIFLFLGGFALAAALHKQKLDQALADKVLLIARGRMSVAVFMLFGVSAGLSMWISNTATAAMMLPLVLGVMTKLDAKKNHNTFLFVLLGIAYSASIGGIATLVGSPPNAIAAAEVGLNFTEWMKLGLPISLILMPIAILVLYTMTKPDLSHKFELDHKPVEWTNGKMVTLAIFLLTVTLWIFSKPINTMLGGFAKFDTLVAIGAILLLGASRAVEWKDIEKTTDWGVLILFGGGICLSNVLKATGTSVFLAHSLTGFLEQAGVLLTILSVVAFVVFLTEFASNTASAALLVPVFATIAEALGLSPVILSALIAVAASCAFMLPVATPPNAIVFGTGHIKQKEMMRIGFVLNIACIGALTLFAWLFW,failed
5,MTAMSPEQSRAIAKKLAFWATLACLLAVVVIMLGAWTRLVHAGLGCPDWPGCYGFLTVPQDETRIAIANARFPETPVDVSKGWPEMIHRYAAGTLGLLVFGLAIASVRKRRAGLPVKLPLFIAGFIVLQAAFGMWTVTLKLWPQVVALHLLGGFTTLSLLLLLTLRLRRRARESEAPRPAMAASLARLRPWLYGGLLLVIAQIALGAWTAANYAAVACTDLPTCQGQWWPEGMDFQHGFDITQHVGPNYLGGQLTSDGRVAIHVSHRLGAVLVLGYLAILLGLLWRQRAQSGLDRAIALVGGALVLQFCLGLTNVWLHIPLIIAVAHNAMGAGLLLSMVHLIWRHHQLALPALSPAPHTTTINREVTA,failed
6,MTARARSALLDAEHIVGYTTYVELLPDEITEGADDIYNTPMCGEVSRTEEAIDRALAGNDVAIIGSGDPNVYALAGLALEIIESKGATATMLDFDVVPGVP,failed
7,MTASPIVVFDLDGTLIDTAPDLINALNFILVREGMPAVPMAVARNMIGQGARRLLERGLELDGRVIAQDDVNRLTVDFIDYYAAHIADESRPFEGLEATLDELSESGYRFAVCTNKLEWLSKLLLDRLGLSPRFAAICGADTFGVAKPDPAILRETVAKAGGDLSAAIMVGDAGPDVGVARRAGVPVIGVEFGYTEVPIAELQPDLLVGHMRELPNAVGRLLPR,not failed
8,MTATWEKKEGNEGLLTVTVPAEKVNKALDQAFKKVVKQINVPGFRKGKVPRPIFEQRFGVEALYQDAIDILLPDAYGEAIDETDIKPVAQPEVSVTQIEKGKDFIFEATVTVEPEVKLGDYKGLEIEKQETELSDDELQEAIDHSLGHLAEMVVKEDGVVENGDTVNIDFSGSVDGEEFEGGQAEGYDLEIGSGSFIPGFEEQLEGMKVDEEKDVVVTFPEEYHAEELAGKEATFKTKVNEIKFKEVPELTDEIANELDAEANTVDEYKENLRKRLAEQKATDAENVEKEEAITKATDNTTIDIPEAMVNTELDRMVSEFAQRIQQQGLDLQTYFQISGQDETQLREQMKDDAEQRVKTNLTLTAIAEAEKIEATDEDIDKELEKMSKQFNISVEDIKNTLGNTDIIKNDVRIQKVIDLLRDNAKFVEGTKED,failed
9,MTAVSSPACAIAGKPPMLSMRDIWLRLHRWLALCLGLFLALLGLSGSLLELKGPILRWEVGAQMLQLAPGEHGTLLQQDAWIRAASDAYPQLHKVFGAAPPRQGFLESDNVIVFGALKERPGTGIAMIDPYSGEPRGFFVFEDLWLAKLVALHRSLLLPPAWGSNLVLLYGLALLGSLGSGLYLWWPGRRSWWKAASLRPGSRGNRRLREWHNVAAAWLCLPLLLIAGSGAWLARPDLFTWPGAQPMAIKPLFSAAHGHLLLGTPGAWLAFLCGISLPLLYLTGLLLWWRKRAARRAVQSFKETSHDTP,failed
10,MTAYIIVGLTPKDAEKLQQYGARVASTLAKYSGEVLVKGSVEQLHGKFEHKAQVILEFPSREDAYNWYHSEEYQALISTRDLGMDSQFQLIG,not failed
11,MTAYWIAHVTIHDMQQYQEYMKLAPAAFQKYGAKFLARGGESVCVEGQAYQRHVIIEFPDLATAQQCYDSEEYKQARLAREGCADVMISFVEG,failed
12,MTCLFSDAPIPDHLYGAIVALGNFDGFHLGHQAVVAAAVARGHAEGRPVIVATFDPHPVRFFCPDLPPFALTTIPQRARLFEKAGADATFVIRFSEAMANLSPEEFIQQQIIDHLKAAGVVTGRDFTFGKGRKGGVDLLQAMGQNLNISVDTIMPVCDQQGAISSTRIREALKQGDPETAARLLSRP,failed
13,MTDAAALPGQPRGGVLSGPATRRAVNVLAPNASAMTLDGTNTWIVAEPDSELAVVIDPGPLDDVHLRNVVDTAERAGRRIALTLLTHGHPDHAEGAARFAELTGTNVRALDPALRLGDEGLAPGDVVTVGGLELRVVPTPGHTSDSLCFHLPADRAVLTGDTVLGRGTTVVAHPDGRLGDYLDSLRRLRSLTVDDGVHTVLPGHGPVLDDAQGAVEFYLAHRAHRLAQVETAVENGYRAPAEVVAHVYADVDRSLWPAAELSVRAQMDYLREHGLI,failed
14,MTDAPADAPLDADARRAVKPVICYPNDSLPRPDLALYRAARASARKTGEVLVPPREGRCFEVKAGQFFRISSVEGPQVGDLNLHNLHDLTERFFSGKTRALHGTHVTTGERLWSNLPYLRPMATIIEDTLGWYGIDQYGGSVHDVIGTRCDPYTGNLLAGGHYHHCCHSNLTRALADHTGLPLHEAEMLVHDVLNVFMCTGFTRDTGQYFMKASPVRPGDYLEFFAEIDLLGNLSACPGGDCSSEHSSDTASCHPLLVEIFAPAEGMLGDWPSPSVNGYDRSHGR,not failed
